In article PMC2566858 (Nucleic Acids Research, 2008) one finds Kd data, which are given here for two molecules.

Substitutions are numbered along the chain they refer to. Where two headings read alike, the source gives them in different places.

Assay in all cases: fluorescence anisotropy
For data set [1], the target named is T1, rGyr_fl Y851F (full-length reverse gyrase) (Thermotoga maritima, UniProt O51934 1-1104, Y851F).
T1 sequence: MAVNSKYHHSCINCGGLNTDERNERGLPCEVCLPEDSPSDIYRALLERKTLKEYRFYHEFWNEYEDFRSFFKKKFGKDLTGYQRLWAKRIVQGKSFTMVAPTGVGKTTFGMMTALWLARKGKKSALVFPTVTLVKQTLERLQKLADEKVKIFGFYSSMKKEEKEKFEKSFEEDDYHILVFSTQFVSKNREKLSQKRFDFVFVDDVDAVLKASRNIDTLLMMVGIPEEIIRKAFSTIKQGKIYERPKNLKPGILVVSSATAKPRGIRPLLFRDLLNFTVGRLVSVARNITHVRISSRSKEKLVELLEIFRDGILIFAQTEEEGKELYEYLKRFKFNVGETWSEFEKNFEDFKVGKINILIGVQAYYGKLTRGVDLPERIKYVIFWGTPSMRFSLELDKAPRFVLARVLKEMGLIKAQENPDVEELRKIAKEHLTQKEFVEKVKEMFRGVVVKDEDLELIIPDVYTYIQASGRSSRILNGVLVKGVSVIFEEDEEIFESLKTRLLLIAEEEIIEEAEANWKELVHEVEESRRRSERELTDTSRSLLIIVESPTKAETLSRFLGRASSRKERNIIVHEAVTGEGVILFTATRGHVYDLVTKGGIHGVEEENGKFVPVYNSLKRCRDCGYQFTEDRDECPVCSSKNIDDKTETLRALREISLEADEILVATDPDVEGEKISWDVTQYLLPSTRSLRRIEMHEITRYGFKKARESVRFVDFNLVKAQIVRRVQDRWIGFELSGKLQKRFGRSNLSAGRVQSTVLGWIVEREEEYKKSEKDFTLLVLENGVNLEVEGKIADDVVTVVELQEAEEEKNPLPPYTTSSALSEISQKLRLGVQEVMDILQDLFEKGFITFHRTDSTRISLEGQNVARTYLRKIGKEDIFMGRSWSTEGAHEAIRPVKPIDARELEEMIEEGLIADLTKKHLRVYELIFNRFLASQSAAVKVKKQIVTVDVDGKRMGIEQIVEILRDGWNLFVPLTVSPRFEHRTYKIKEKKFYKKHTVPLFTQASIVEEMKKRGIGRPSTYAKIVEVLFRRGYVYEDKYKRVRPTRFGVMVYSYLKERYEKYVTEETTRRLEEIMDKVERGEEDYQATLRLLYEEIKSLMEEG

Data set [2] deals with T1, rGyr_fl Y851F (full-length reverse …). This is another data set of the same source.
For another data set, the target named is T2, rGyr_fl K106Q/Y851F (Thermotoga maritima, UniProt O51934 1-1104, K106Q;Y851F).
T2 sequence: T1 sequence with K106Q

B1: 60-base ssDNA (ssDNA)
DNA: AAGCCAAGCTTCTAGAGTCAGCCCGTGATATTCATTACTTCTTATCCTAGGATCCCCGTT
With B1, the equilibrium dissociation constant (Kd) in data set [1] was 36 ± 1 nM; in data set [2] it was 330 ± 20 nM.

B2: 60 bp dsDNA (dsDNA)
DNA 1: B1 DNA
DNA 2: AACGGGGATCCTAGGATAAGAAGTAATGAATATCACGGGCTGACTCTAGAAGCTTGGCTT
For the molecule B2, the dissociation constant (Kd) with rGyr_fl K106Q/Y851F was found to be 460 ± 70 nM.
